In one test the target is T1, Tau fragment 37-51 (human, UniProt P10636-8 37-51).
T1 construct: range 37-51
T1 peptide (looked up): GDTDAGLKESPLQTP
Nature of the test: ELISA on Tau peptides (Example 8). In general terms: An ELISA detects its analyte on a solid surface through an enzyme-linked reagent.

Another test deals with T2, Tau fragment 28-42 (human, UniProt P10636-8 28-42).
T2 construct: range 28-42
T2 peptide (looked up): GYTMHQDQEGDTDAG
Nature of the test: ELISA on Tau peptides (Example 8).

The next test deals with T3, Tau fragment 19-33 (human, UniProt P10636-8 19-33).
T3 construct: range 19-33
T3 peptide (looked up): GLGDRKDQGGYTMHQ
Nature of the test: ELISA on Tau peptides (Example 8).

The next test has as its target T4, Tau fragment 1-15 (human, UniProt P10636-8 1-15).
T4 construct: range 1-15
T4 peptide (looked up): MAEPRQEFEVMEDHA
Briefly: ELISA on Tau peptides (Example 8).

For a further test, the target named is T5, Oligomers (In vitro oligomerised (arachidonic acid and heparin) homo-oligomer of one polypeptide; one copy of the chain is given. Biotin sits on the AVI-tag, which is left out.).
T5 construct: also called oligoTau; oligomeric Tau; not shown: AVI-tag (site-specifically biotinylated) and any purification tag or linker of the construct
Briefly: capture ELISA, antibody on anti-IgG plate, biotinylated oligomeric Tau titrated. The protocol:
For the oligoTau and monoTau capture ELISAs, antibodies contained in serum-free sterile hybridoma supernatants were immobilized on an anti-IgG coated plate at 500-fold dilution, followed by the incubation of oligoTau or monoTau, both with site-specific biotinylation via an AVI-tag. The target incubations started at 5 μg/mL and then were diluted 8- or 16-fold. Streptavidin-HRP and ABTS substrate was used for signal quantitation in a plate reader (Tecan, Switzerland). Results are expressed as O.D.

Another test deals with T6, MAPT(10-24) (human, also: biotinylated).
T6 construct: also called Tau fragment 10-24
T6 peptide: VMEDHAGTYGLGDRK
Briefly: ELISA on Tau peptides (Example 8).

The target of test [1] is T7, human Tau monomer (recombinant 2N4R isoform, amino acids 2-441) (human, UniProt P10636-8 2-441).
T7 construct: range 2-441; also called monomeric human Tau; monomeric Tau
Briefly: ELISA, Avi-tag biotinylated Tau monomer on Neutravidin plate, IgG titrated. The protocol:
(§1) Following a comparison of 37D3-H9 binding to biotinylated Tau monomer and biotinylated peptide (MAPT_10-24), binding of 37D3-H9 to additional biotinylated peptides was also assessed. Nunc maxisorp 96-well microplates were coated at 4° C. for >12 hours with Neutravidin diluted to 2 μg/ml in 50 mM Sodium Carbonate Buffer, pH 9.6. All subsequent incubations were performed at room temperature. After coating, plates were blocked with Superblock™ (PBS) Blocking Buffer (Thermo Fisher Scientific) for two hours then washed thoroughly with PBS, 0.05% Polysorbate 20. Wells were then exposed to biotinylated Tau peptides (Table 20) or Avi-tag biotinylated Tau monomer at 1 μg/ml for one hour and washed as previously. Peptides were synthesized using standard solid-phase Fmoc chemistry (see, e.g., Fmoc solid phase peptide synthesis: A practical approach; Chan, W. C., White, P. D., Eds.; Oxford University Press: New York, 2000). […] Wells were washed as previously and bound antibody detected with peroxidase-conjugated secondary antibody (Invitrogen/Life Technologies) diluted 1/1000 in Superblock™ Blocking Buffer (Rabbit anti-Mouse IgG or Goat Anti-Human IgG (H+L) respectively). […] Reactions were stopped by addition of 1M Phosphoric Acid and absorbance at 450 nm was measured with a SpectraMax M2 platereader.

The next test deals with T8, MAPT(2-34) (human, biotinylated).
T8 construct: also called Tau fragment 2-34
T8 peptide: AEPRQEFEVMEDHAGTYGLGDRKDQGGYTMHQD
Briefly: ELISA, biotinylated peptide on Neutravidin plate, IgG titrated. The protocol: as §1

The target in the next test is T9, MAPT(2-24) (human, biotinylated).
T9 construct: also called Tau fragment 2-24
T9 peptide: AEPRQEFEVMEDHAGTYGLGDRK
The test is described as above. The protocol:
as §1

No end group written: not given here.

One may read the EC50 (read off the curve) as the concentration at which the effect is half-maximal.

B1: 94B2-C1 (antibody, mouse IgG2a, V domains shown)
VH: EVQLQQSGPELVKPGASMKISCKASGYSLTGYTMNWVKQSHGKNLEWIGLISPYNGVTSYNQKFKGKATLTVDKSSNTAYMELLSLTFEDSAVYYCARQGAYWGQGTLVTVSA
VL: not shown
B1: the binding result with Tau fragment 37-51 and with Tau fragment 28-42 was “no binding (tested: not shown on the sheet)” each time.

B2: 19H6-F7 (antibody, mouse IgG2a, V domains shown)
VH: EVQLVESGGDLVKPGGSLKLSCAASGFTFSSYGMSWVRQTPDKRLEWVATISSGGTYTYYPDSVKGRFTISRDNAKNTLYLQMSSLKSEDTAMYYCAPSYDGAMDYWGQGTSVTVSS
VL: DVLMTQTPLSLPVSLGDQASISCRSSQSIVHSNGNTYLEWYLQKPGQSPKLLIYKVSNRFSGVPDRFSGSGSGTDFTLKISRVEAEDLGVYYCFQGSLVPWTFGGGTKLEIK
In the case of B2, the binding result with Tau fragment 37-51, with Tau fragment 28-42, with Tau fragment 19-33 and in the test with Tau fragment 1-15 was “no binding (tested: not shown on the sheet)” throughout.

B3: 19F8-B1 (antibody, V domains shown)
VH: EVQLQQSGPELVKPGASVKMSCKASGYTFTDYYMKWVKQSHGKSLEWIGDLNPNNGGTLYNQKFKGQATLTVDKSSSTAYMQFNSLTSEDSAVYYCARSAGYGDSFAYWGQGTLVTVSA
VL: DVLMTQTPLSLPVSLGDQASISCRSSQNIVHSNGNTYLEWYLQKPGQSPKLLIYKVSNRFSGVPDRFSGSGSGTDFTLKISRVEAEDLGIYFCFQGSHVPPTFGGGTKLEIK
notes: hybridoma supernatant
Regarding B3, in the test with Oligomers, the binding result is recorded as “binds”.

B4: 123E9-A1 (antibody, mouse IgG2a, V domains shown)
VH: EVQLQQSGPELVKPGASVKMSCKASGYTFTDYYMKWVKQSHGKSLEWIGDIDPNNGGTSYNQKFKGKATLTVDKSSSTAYMQLNSLTSEDSAVYYCARSAGFGDSFSFWGLGTLVTVSA
VL: DVLMTQTPLSLPVSLGDQASISCRSSQSIVHSNGNTYLEWYLQKPGQSPKLLIYKVSNRFSGVPDRFSGSGSGTDFTLKISRVEAEDLGFYYCFQGSHVPPTFGGGTKLEIK
With B4, the binding result with Tau fragment 37-51, in the test with MAPT(10-24) and in the test with Tau fragment 1-15 was “no binding (tested: not shown on the sheet)” throughout.

B5: 54C1-H11 (antibody, mouse IgG2a, V domains shown)
VH: EVQLVESGGDLVKPGGSLKVSCVASGFTFRSYGMSWVRQTPDKRLDWVATISSGGNYTYYPDSVKGRFTISRDNAKNTLYLQMSSLKSEDTAMYYCASSYSGAMDYWGQGTSVTVSS
VL: DTVMTQSPLSLPVSLGDQASISCRSSQSIVHSNGNTYLEWYLQKPGQSPKLLIYTVSNRFSGVPDRFSGSGSGTDFTLKISRVEAEDLGVYYCFQGSHVPWTFGGGTKLEIK
On to B5, for which the binding result in the test with Tau fragment 37-51, in the test with Tau fragment 28-42, in the test with Tau fragment 19-33 and in the test with Tau fragment 1-15 was “no binding (tested: not shown on the sheet)” in each case.

B6: 11E10-B8 (antibody, mouse IgG2a, V domains shown)
VH: EVQLVESGGDLVKPGGSLKLSCAASGFTFRSYGMSWVRQTPDKRLEWVATISGGGSYTYYPDSVKGRFTISRDNAKNTLYLQMSSLKSEDTAMYYCAVSYDGAMDYWGQGTSVTVSS
VL: DVLMTQTPLSLPVSLGDQASISCRSSQSIVHSNGNTYLEWYLQKPGQSPKLLIYKVSNRFSGVPDRFSGSGSGTDFTLKISRVEAEDLGLYYCFQGSHVPWTFGGGTKLEIK
As to B6, the binding result in the test with Oligomers is reported as “binds”.

B7: 3A4-H4 (antibody, mouse IgG2a, V domains shown)
VH: EVQLVESGGDLVKPGGSLKLSCAASGFTFSSYGMSWVRQTPDKRLEWVATISSGGTYTYYPDSVKGRFTISRDNAKNTLYLQMSSLKSEDTAMYFCATSYDGAMDYWGQGTSVTVSS
VL: DVLMTQTPLSLPVSLGDQASISCRSSQNIVHSNGNTYLEWYLQKPGQSPKLLIYKVSNRFSGVPDRFSGSGSGTDFTLKISRVEAEDLGVYYCFQGTLVPWTFGGGTKLEIK
For B7, the binding result with Tau fragment 37-51 was “no binding (tested: not shown on the sheet)”; in the test with Tau fragment 28-42 it was “no binding (tested: not shown on the sheet)”; in the test with MAPT(10-24), “binds”; with Tau fragment 19-33, “no binding (tested: not shown on the sheet)”; with Tau fragment 1-15 it was “no binding (tested: not shown on the sheet)”.

B8: 37D3-H9 (antibody, mouse IgG2a, V domains shown)
VH: EVQLVESGGDLAKPGGSLKLSCTASGLIFRSYGMSWVRQTPDKRLEWVATINSGGTYTYYPDSVKGRFTISRDNAKNTLYLQMSSLKSEDTAMYYCANSYSGAMDYWGQGTSVTVSS
VL: DDLLTQTPLSLPVSLGDPASISCRSSQSIVHSNGNTYFEWYLQKPGQSPKLLIYKVSNRFSGVPDRFSGSGSGTDFTLKISRVEAEDLGVYYCFQGSLVPWTFGGGTKLEIK
notes: also called 37D3-H9 mIgG2a; 37D3-H9 IgG
B8: the “EC50 (read off the curve)” value was about 0.1 nM in test [1], about 0.2 nM with MAPT(2-34) and about 0.2 nM in the test with MAPT(2-24). Besides, the binding result in the test with Tau fragment 37-51, with Tau fragment 28-42, with Tau fragment 19-33 and in the test with Tau fragment 1-15 was “no binding (tested: not shown on the sheet)” throughout.

B9: 26C1-C8 (antibody, V domains shown)
VH: EVHLQQSGAELVRSGASVKLSCTASGFNIKDYYMYWVKQRPEQGLEWIGWIDPENGDTEYFPKFQGKATMTADTSSKTAYLQLSSLTSEDTAVYYCNAWRARATNSALDYWGQGTSVTVSS
VL: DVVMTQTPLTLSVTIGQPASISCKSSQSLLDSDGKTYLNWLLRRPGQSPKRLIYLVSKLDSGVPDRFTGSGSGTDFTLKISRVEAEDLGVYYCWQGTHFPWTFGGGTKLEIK
notes: hybridoma supernatant
Consider B9, for which the binding result with Oligomers is recorded as “binds”.

B10: 89F4-A1 (antibody, mouse IgG2a, V domains shown)
VH: EVQLVESGGGLVQPKGSLKLSCAASGFTFNTYAMNWVRQAPGKGLEWVARIRSKSNNYAAYFADSVKDRFTISRDDSQTMLYLQMNNLKSEDTAMYYCVSGGNYVPFAYWGQGTLVTVSA
VL: NIMMTQSPSSLAVSAGEKVTMSCKSSQSVFYSSEQRNYLAWYQQKPGQSPKLLISWASTRESGVPDRFTGSGSGTDFTLTISSVQGEDLAVYYCHQYLSSFTFGSGTKLEIK
In the case of B10, the binding result with MAPT(10-24), with Tau fragment 19-33 and with Tau fragment 1-15 was “no binding (tested: not shown on the sheet)” throughout.

The values above are taken from US20190112361A1 (Genentech, published 2019).
